Experimental data published in patent publication US20250043302A1, “MUTATED HYDROXYPHENYLPYRUVATE DIOXYGENASE POLYPEPTIDE, AND CODING GENE AND USE THEREOF” (BEIJING DABEINONG BIOTECHNOLOGY CO., LTD., priority 2021, published 2025).

How the values were obtained:
Type in all cases: in vivo
[1] = system: Arabidopsis thaliana T1 plants; assay: Topramezone tolerance of transgenic Arabidopsis thaliana T1 plants (spray, bleached leaf area grade, damage score); details: 7 DAT, Table 4; for Classification and statistics of the grade of pesticide damage: Grade 0 / Classification and statistics of the grade of pesticide damage: Grade 1 / Classification and statistics of the grade of pesticide damage: Grade 2 / Classification and statistics of the grade of pesticide damage: Grade 3: number of plants; for Scores: pesticide damage score 0-100
Procedure, shortened: (§1)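 T1 transformants selected by glufosinate; 18-day-old plants, with empty-vector and wild-type controls, sprayed with topramezone (25–200 g ai/ha), isoxaflutole (35–280 g ai/ha) or mesotrione (52.5–420 g ai/ha), water as 0×. Bleached leaf area fraction scored at 7 DAT as grades 0–3.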

[2] = system: Arabidopsis thaliana T1 plants; assay: Isoxaflutole tolerance of transgenic Arabidopsis thaliana T1 plants (spray, bleached leaf area grade, damage score); parameters: Scores (pesticide damage): scale not given here; details: spray, Arabidopsis thaliana T1 plants; for Classification and statistics of the grade of pesticide damage: Grade 0 (number of plants) / Classification and statistics of the grade of pesticide damage: Grade 1 (number of plants) / Classification and statistics of the grade of pesticide damage: Grade 2 (number of plants) / Classification and statistics of the grade of pesticide damage: Grade 3 (number of plants): 16 plants
Procedure, shortened: as §1

[3] = system: Arabidopsis thaliana T1 plants; assay: Mesotrione tolerance of transgenic Arabidopsis thaliana T1 plants (spray, bleached leaf area grade, damage score); parameters: Scores: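 damage score 0-100 computed as Σ(N×S)/(T×M)×100 over grades 0-3 with higher meaning more damage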; details: Arabidopsis thaliana T1 plants; for Grade 0 (classification and statistics of the grade of pesticide damage; number of plants) / Grade 1 (classification and statistics of the grade of pesticide damage; number of plants) / Grade 2 (classification and statistics of the grade of pesticide damage; number of plants) / Grade 3 (classification and statistics of the grade of pesticide damage; number of plants): 16 plants
Procedure, shortened: as §1

[4] = isoxaflutole 35 g ai/ha (0.5x field concentration)
[5] = isoxaflutole 70 g ai/ha (1x field concentration)

B1: NtHPPDm-F372A-F383W-02: nucleotide sequence encoding Nicotiana tabacum HPPD with F372A+F383W; vector DBN11753 (nucleic acid)
DNA: ATGGGGAAGCTGGAAACCGTCACTACCACCTCGGCGGCGGCTGCTGATGATTCATCGGAATTAACAACCAACTTCAAGTTGGTTGGTTTCAAAAATTTCATCAGAACAAACCCAAGGTCTGATTTCTTCTCCGTCAAGAGCTTCCACCACATTGAATTCTGGTGCGGTGACGCAACTAACACAGCGCGCCGCTTCTCATGGAGCCTAGGGATGCCAATTGCAGCTAAGAGTGATCTTTCAACAGGAAACAGCGTGCACGCCTCCTACCTCCTCCGGCCCGTAAGCGGTTCTTTACAGTTCCTGTTTACAGCACCATATTCACCTTCTATTTCGACTCCTAGTTCAGCTGCAATCCCATCTTTTTCCACATCTACACATAGGTCTTTCACTACAACACATGGACTGGGTGTTCGTGCCGTCGCCCTCGAGGTGGAGAATGCTTATACTGCCTTCAGTGCTTCTGTCTCCAGAGGCGCCAAGCCAATGTTTGAACCTGTGACAATTGATGAACAAGTAGCAATGGCTGAGGTTCATTTGTACGGCGATGTTGTGCTGCGATTTGTTTCTTATCTCAAGGACGCCGACAACCTGGTCTTCCTGCCGGGGTTTGAGGCCATGGATGAAACTGCTAGTTACAAAGAACTTGATTATGGAATACGGCGTTTGGATCATGCTGTGGGCAATGTTCCAGAACTCGGCCCGGTAGTTGATTACATCAAGAGGTTTACTGGATTTCATGAATTTGCAGAGTTTACCGCTGAAGATGTGGGAACTGCGGAAAGTGGGCTAAACTCCATGGTTCTTGCGAACAATGATGAGACTGTGCTCCTCCCTCTGAATGAGCCTGTTTATGGCACCAAAAGAAAATCTCAGATACAAACATATCTTGAGCATAATGAAGGAGCTGGGGTGCAGCACCTTGCTCTTGTTACTGAAGACATCTTTAAGACTTTGACAGAGATGAGGAAGAGAAGTGGAGTTGGAGGTTTTGAGTTCATGCCTTCCCCCCCGCCGACCTACTACAAGAATTTGAAGAACAGGGCTGGTGACGTCCTCTCAGACGAGCAGATTTTGGCTTGTGAGGAGCTTGGCATCTTGGTAGACCGGGACGACCAGGGGACGCTTCTCCAAATTGCCACAAAACCCGTCGGGGACCGCCCCACCATATGGATTGAGATCATCCAGAGGATAGGCTGCATGCTTAAAGATGGAAAAGGTCAAGTGTACCAGAAGGGTGGTTGTGGTGGGTTTGGCAAAGGAAATTTTTCTGAGCTGTTCAGAAGCATAGAAGAATATGAGAAGACACTGGAAGCAAAACAAGCAAATCAAGTTGCGGCCGCGTGA
modifications: NtHPPDm-F372A-F383W-02 Nucleotide Sequence
notes: vector DBN11753
Classification and statistics of the grade of pesticide damage: Grade 0 ([1]; topramezone 25 g ai/ha (1×)): 2
Classification and statistics of the grade of pesticide damage: Grade 1 ([1]; topramezone 25 g ai/ha (1×)): 13
Classification and statistics of the grade of pesticide damage: Grade 2 ([1]; topramezone 25 g ai/ha (1×)): 1
Classification and statistics of the grade of pesticide damage: Grade 3 ([1]; topramezone 25 g ai/ha (1×)): 0
Classification and statistics of the grade of pesticide damage: Grade 0 ([1]; topramezone 100 g ai/ha (4×)): 0
Classification and statistics of the grade of pesticide damage: Grade 1 ([1]; topramezone 100 g ai/ha (4×)): 1
Classification and statistics of the grade of pesticide damage: Grade 2 ([1]; topramezone 100 g ai/ha (4×)): 13
Classification and statistics of the grade of pesticide damage: Grade 3 ([1]; topramezone 100 g ai/ha (4×)): 2
Scores ([1]; topramezone 25 g ai/ha (1×)): 31
Scores ([1]; topramezone 100 g ai/ha (4×)): 69
Resistance evaluation ([1]; topramezone 25 g ai/ha (1×)): moderately
Resistance evaluation ([1]; topramezone 100 g ai/ha (4×)): non-resistant (non-resistant plants (scores 68-100))
Resistance evaluation [2, 4]: Moderately
Scores (pesticide damage) [2, 4]: 33
Classification and statistics of the grade of pesticide damage: Grade 0 (number of plants) [2, 4]: 1
Classification and statistics of the grade of pesticide damage: Grade 1 (number of plants) [2, 4]: 14
Classification and statistics of the grade of pesticide damage: Grade 2 (number of plants) [2, 4]: 1
Classification and statistics of the grade of pesticide damage: Grade 3 (number of plants) [2, 4]: 0
Resistance evaluation [2, 5]: Poorly
Scores (pesticide damage) [2, 5]: 65
Classification and statistics of the grade of pesticide damage: Grade 0 (number of plants) [2, 5]: 0
Classification and statistics of the grade of pesticide damage: Grade 1 (number of plants) [2, 5]: 3
Classification and statistics of the grade of pesticide damage: Grade 2 (number of plants) [2, 5]: 11
Classification and statistics of the grade of pesticide damage: Grade 3 (number of plants) [2, 5]: 2
Resistance evaluation ([3]; mesotrione 52.5 g ai/ha): Poorly resistant
Scores ([3]; mesotrione 52.5 g ai/ha): 35
Grade 0 (classification and statistics of the grade of pesticide damage; number of plants) ([3]; mesotrione 52.5 g ai/ha): 1
Grade 1 (classification and statistics of the grade of pesticide damage; number of plants) ([3]; mesotrione 52.5 g ai/ha): 13
Grade 2 (classification and statistics of the grade of pesticide damage; number of plants) ([3]; mesotrione 52.5 g ai/ha): 2
Grade 3 (classification and statistics of the grade of pesticide damage; number of plants) ([3]; mesotrione 52.5 g ai/ha): 0
Resistance evaluation ([3]; mesotrione 105 g ai/ha): Non-resistant
Scores ([3]; mesotrione 105 g ai/ha): 69
Grade 0 (classification and statistics of the grade of pesticide damage; number of plants) ([3]; mesotrione 105 g ai/ha): 0
Grade 1 (classification and statistics of the grade of pesticide damage; number of plants) ([3]; mesotrione 105 g ai/ha): 1
Grade 2 (classification and statistics of the grade of pesticide damage; number of plants) ([3]; mesotrione 105 g ai/ha): 13
Grade 3 (classification and statistics of the grade of pesticide damage; number of plants) ([3]; mesotrione 105 g ai/ha): 2
